From publication PMC3110719
Like-named read-outs stand apart in the source and are kept apart here.

Test system: Nc1ncnc2c1ncn2[C@@H]1O[C@H](COP(=O)(O)OP(=O)(O)OP(=O)(O)O)[C@@H](O)[C@H]1O
Assay: purified protein

Substance | Km (1 µM MsbA, 0-1 mM ATP, 30 min) [µM] | Km [µM]
MsbA (Escherichia coli K-12; D512G) | 122 ± 29 | –
MsbA (Escherichia coli K-12; L511P) | – | 23 ± 12
